Among the data in patent US20230227520A1 (MAX PLANCK GESELLSCHAFT ZUR F RDERUNG DER WISSENSCHAFTEN E V, published 2023) are Kd, koff and kon values, retold here.

Test [1] addresses T1, G-CSF Receptor (G-CSFR) (R&D systems 381-GR-050/CF), recombinant human (human, UniProt Q99062 25-627, limits assumed).
T1 construct: Bought protein, amine-coupled to a CM5 chip; also called rhG-CSFR; human G-CSF receptor
T1 sequence (looked up): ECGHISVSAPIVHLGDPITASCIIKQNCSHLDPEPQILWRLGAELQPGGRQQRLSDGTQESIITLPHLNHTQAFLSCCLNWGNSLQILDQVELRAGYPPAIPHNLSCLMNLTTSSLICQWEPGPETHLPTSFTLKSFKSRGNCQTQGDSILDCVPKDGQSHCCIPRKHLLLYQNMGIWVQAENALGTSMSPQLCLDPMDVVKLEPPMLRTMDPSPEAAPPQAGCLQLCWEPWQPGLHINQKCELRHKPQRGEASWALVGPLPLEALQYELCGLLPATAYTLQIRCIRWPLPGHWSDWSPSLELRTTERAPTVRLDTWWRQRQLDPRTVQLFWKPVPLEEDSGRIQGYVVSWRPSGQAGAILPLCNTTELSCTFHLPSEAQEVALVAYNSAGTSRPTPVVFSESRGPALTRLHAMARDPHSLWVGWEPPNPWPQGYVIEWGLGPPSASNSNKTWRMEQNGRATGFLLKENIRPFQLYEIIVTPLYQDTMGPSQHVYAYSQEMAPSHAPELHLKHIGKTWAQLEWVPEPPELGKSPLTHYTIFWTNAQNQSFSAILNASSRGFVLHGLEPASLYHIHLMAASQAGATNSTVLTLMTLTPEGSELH
Description: SPR, Biacore X100, G-CSFR amine-coupled on CM5, 2nd order kinetics model. The protocol:
(§1) Single-cycle kinetics experiments were performed on a Biacore X100 system (GE Healthcare Life Sciences). G-CSF Receptor (G-CSFR) (R&D systems 381-GR-050/CF) was diluted to 50 μg/ml in 10 mM acetate buffer pH 5.0 and immobilized on the surface of a CM5 sensor chip (GE Healthcare 29149604) using standard amine coupling chemistry. The designs and rhG-CSF (USP RS Filgrastim, Sigma-Aldrich 1270435) were diluted in running buffer (10 mM HEPES, 150 mM NaCl, 3.4 mM EDTA, 0.005% v/v Tween-20). Analyses were conducted at 25° C. at a flow rate of 30 μl/min. Five sequential 10-fold increasing concentrations of the sample solution (for the designs from 0.5 nM to 50 μM, and for rhG-CSF from 0.05 to 500 nM) were injected over the functionalized sensor chip surface for 180 s, followed by a 180 s dissociation with running buffer. At the end of each run, the sensor surface was regenerated with a 240 s injection of 10 mM glycine-HCl pH 2.0. Each experiment was performed two times for rhG-CSF, Boskar3, Boskar4, diSohair2, Moevan, and Moevan_t2. Association rate (ka), dissociation rate (kd), and equilibrium dissociation (Kd) constants were initially obtained by global fitting of the experimental reference-subtracted data to a 1:1 interaction model using the Biacore X100 evaluation software (v.2.0.1). To evaluate if a kinetics model that depends on double the analyte stoichiometry improves the goodness of fit to the data, the following rate integral was used: […]
Background: In SPR one partner is held on a chip, and binding of the other changes the refractive index at the surface.

Test [2] deals with T1, G-CSF Receptor (G-CSFR) (R&D systems …). Briefly: SPR, Biacore X100, G-CSFR amine-coupled on CM5, 2nd order kinetics model, second run. How it is done: (§2) To obtain a more detailed picture on the nature of the binding, the inventors fitted the highest concentration sensorgram curves using higher order kinetics models. […] While this higher-order interaction model better explains the data than a 1:1 binding model, a clear deviation remained for rhG-CSF sensorgrams.
(§3) Single-cycle kinetics experiments were performed on a Biacore X100 system (GE Healthcare Life Sciences). G-CSF Receptor (G-CSFR) (R&D systems 381-GR-050/CF) was diluted to 50 μg/ml in 10 mM acetate buffer pH 5.0 and immobilized on the surface of a CM5 sensor chip (GE Healthcare 29149604) using standard amine coupling chemistry. The designs and rhG-CSF (USP RS Filgrastim, Sigma-Aldrich 1270435) were diluted in running buffer (10 mM HEPES, 150 mM NaCl, 3.4 mM EDTA, 0.005% v/v Tween-20). Analyses were conducted at 25° C. at a flow rate of 30 μl/min. Five sequential 10-fold increasing concentrations of the sample solution (for the designs from 0.5 nM to 50 μM, and for rhG-CSF from 0.05 to 500 nM) were injected over the functionalized sensor chip surface for 180 s, followed by a 180 s dissociation with running buffer. At the end of each run, the sensor surface was regenerated with a 240 s injection of 10 mM glycine-HCl pH 2.0. Each experiment was performed two times for rhG-CSF, Boskar3, Boskar4, diSohair2, Moevan, and Moevan_t2. Association rate (ka), dissociation rate (kd), and equilibrium dissociation (Kd) constants were initially obtained by global fitting of the experimental reference-subtracted data to a 1:1 interaction model using the Biacore X100 evaluation software (v.2.0.1).

Test [3] shares this target. Description: SPR, Biacore X100 single-cycle kinetics, G-CSFR amine-coupled on CM5, 1:1 binding model, second run. The protocol:
as §1

The target is the same in test [4]. Briefly: SPR (Biacore), G-CSFR immobilised on the chip, rhG-CSF 4 nM - 64 nM as analyte, five traces with binding model fit [panel A].
Test [5] has the same target. Description: SPR, Biacore X100 single-cycle kinetics, G-CSFR amine-coupled on CM5, 1:1 binding model; Table 10 series (Moevan/diSohair2 comparison), 1:1 binding model.
Test [6] has the same target. Briefly: SPR, Biacore X100 single-cycle kinetics, G-CSFR amine-coupled on CM5, 1:1 binding model. How it is done:
To test whether the grafted epitope residues mediate binding of the designs to the G-CSF receptor, the inventors also performed SPR measurements for the Moevan and diSohair2 initial design templates (Moevan_control and diSohair_control, respectively), and no binding was observed (FIG. 20C,F).
as §1

Test [7] has the same target. Description: SPR, second-order reaction model, value as told in the text; second-order reaction model, highest concentration sensorgram. How it is done: as §2, §3
Test [8] shares this target. Description: SPR, Biacore X100 single-cycle kinetics, G-CSFR amine-coupled on CM5, 1:1 binding model. How it is done:
as §1
The source holds these as a separate data set.

B1: rhG-CSF (recombinant human G-CSF; USP RS Filgrastim, Sigma-Aldrich 1270435) (ligand)
chain: TPLGPASSLPQSFLLKCLEQVRKIQGDGAALQEKLCATYKLCHPEELVLLGHSLGIPWAPLSSCPSQALQLAGCLSQLHSGLFLYQGLLQALEGISPELGPTLDTLQLDVADFATTIWQQMEELGMAPALQPTQGAMPAFASAFQRRAGGVLVASHLQSFLEVSYRVLRHLAQP
The Kd is the equilibrium constant for the complex coming apart. The koff is the first-order rate constant of dissociation. As usually defined, the kon is the rate constant with which the complex forms. Turning to B1, the Kd is 82 nM in test [1]; 88 nM in test [2]; 0.41 nM in test [3]; 1.4 nM in test [4]; 1.1 nM in test [5]; 86 nM in test [7]. The Kd in test [8] was determined as 0.36 nM. The koff in test [1] is 0.0009 s⁻¹; in test [2], 0.00084 s⁻¹; in test [3], 0.00026 s⁻¹; in test [4], 0.0004 s⁻¹; in test [6] it was 0.00049 s⁻¹; in test [8] it was 0.00028 s⁻¹. Further, the kon in test [1] came out at 11000 M⁻¹ s⁻¹; in test [2], 10000 M⁻¹ s⁻¹; in test [3], 640000 M⁻¹ s⁻¹; in test [4], 290000 M⁻¹ s⁻¹; in test [6], 300000 M⁻¹ s⁻¹; in test [8], 790000 M⁻¹ s⁻¹.
